Key:
[1] = molecular target: (RBD(319-541)-CHO)2 (SARS-CoV-2) (UniProt P0DTC2); experiment: SDS-PAGE
[2] = molecular target: RBD(319-541)-HEK_A3 (SARS-CoV-2) (UniProt P0DTC2); experiment: SDS-PAGE

Row | Substance | stoichiometry N [1] | percent of the preparation as dimer [2] | stoichiometry N [2]
1 | (RBD(319-541)-CHO)2 (from UniProt P0DTC2 319-541) (domain or fragment) | 2 |  | 
2 | RBD(319-541)-HEK_A3 (from UniProt P0DTC2 319-541) (domain or fragment) |  | 13% | 2

Reference: doi:10.1101/2021.05.10.443404
